# B1: Azoarcus group I ribozyme (parent)
# chain: GUGCCUUGCGCCGGGAAACCACGCAAGGGAUGGUGUCAAAUUCGGCGAAACCUAAGCGCCCGCCCGGGCGUAUGGCAACGCCGAGCCAAGCUUCGGCGCCUGCGCCGAUGAAGGUGUAGAGACUAGACGGCACCCACCUAAGGCAAACGCUAUGGUGAAGGCAUAGUCCAGGGAGUGGCGAAAGUCACACAAACCGG
# Variants of: B1
# Experiment: reverse-splicing fitness (ratio to wild type); higher = more active; in vitro selection; Mg2+ level not given
# How it was run: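 An in vitro group I ribozyme library with randomized positions was T7-transcribed and gel-purified. In triplicate, 10 pmol RNA in EPPS pH 7.5 was reacted with 50 pmoles of a 30-nt RNA substrate for 1 h at 37 °C across several added MgCl2 levels (1–48 mM), then stopped with EDTA. Products were reverse transcribed from a substrate-complementary primer, PCR-amplified and sequenced (HiSeq 4000). Fitness is a variant's read proportion after selection over that before, normalised to wild type.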
row,Variant,reverse-splicing fitness
1,C82U A111G A145G C150U C169U U176G,0.005
2,C82U A111G A145G C150U U176A,0.135
3,C82U A111G A145G C150U U176C,0.193
4,C82U A111G A145G C150U U176G,0.0312
5,C82U A111G A145G C169A,0.00814
6,C82U A111G A145G C169A U176A,0.0185
7,C82U A111G A145G C169A U176C,0.022
8,C82U A111G A145G C169A U176G,0.00491
9,C82U A111G A145G C169G,0.00933
10,C82U A111G A145G C169G U176A,0.02
11,C82U A111G A145G C169G U176C,0.0236
12,C82U A111G A145G C169G U176G,0.00438
13,C82U A111G A145G C169U,0.0113
14,C82U A111G A145G C169U U176A,0.0117
15,C82U A111G A145G C169U U176C,0.0129
16,C82U A111G A145G C169U U176G,0.0046
17,C82U A111G A145G U176A,0.201
18,C82U A111G A145G U176C,0.265
19,C82U A111G A145G U176G,0.048
20,C82U A111G A145U,0.462
21,C82U A111G A145U C150A,0.0335

row,Variant,reverse-splicing fitness
1,C82U A111G A145U C150A C169A,0.0078
2,C82U A111G A145U C150A C169A U176A,0.0129
3,C82U A111G A145U C150A C169A U176C,0.00854
4,C82U A111G A145U C150A C169A U176G,0.00532
5,C82U A111G A145U C150A C169G,0.00745
6,C82U A111G A145U C150A C169G U176A,0.0131
7,C82U A111G A145U C150A C169G U176C,0.0113
8,C82U A111G A145U C150A C169G U176G,0.00518
9,C82U A111G A145U C150A C169U,0.0083
10,C82U A111G A145U C150A C169U U176A,0.013
11,C82U A111G A145U C150A C169U U176C,0.012
12,C82U A111G A145U C150A C169U U176G,0.00567
13,C82U A111G A145U C150A U176A,0.0234
14,C82U A111G A145U C150A U176C,0.0305
15,C82U A111G A145U C150A U176G,0.0097
16,C82U A111G A145U C150G,0.0379
17,C82U A111G A145U C150G C169A,0.00869
18,C82U A111G A145U C150G C169A U176A,0.00927
19,C82U A111G A145U C150G C169A U176C,0.00932
20,C82U A111G A145U C150G C169A U176G,0.00561
21,C82U A111G A145U C150G C169G,0.00642

row,Variant,reverse-splicing fitness
1,C82U A111G A145U C150G C169G U176A,0.00668
2,C82U A111G A145U C150G C169G U176C,0.00527
3,C82U A111G A145U C150G C169G U176G,0.00515
4,C82U A111G A145U C150G C169U,0.00901
5,C82U A111G A145U C150G C169U U176A,0.00755
6,C82U A111G A145U C150G C169U U176C,0.0112
7,C82U A111G A145U C150G C169U U176G,0.00472
8,C82U A111G A145U C150G U176A,0.0137
9,C82U A111G A145U C150G U176C,0.0255
10,C82U A111G A145U C150G U176G,0.00442
11,C82U A111G A145U C150U,0.276
12,C82U A111G A145U C150U C169A,0.00819
13,C82U A111G A145U C150U C169A U176A,0.0115
14,C82U A111G A145U C150U C169A U176C,0.00733
15,C82U A111G A145U C150U C169A U176G,0.00546
16,C82U A111G A145U C150U C169G,0.00858
17,C82U A111G A145U C150U C169G U176A,0.0118
18,C82U A111G A145U C150U C169G U176C,0.0105
19,C82U A111G A145U C150U C169G U176G,0.00489
20,C82U A111G A145U C150U C169U,0.0088
21,C82U A111G A145U C150U C169U U176A,0.0117

row,Variant,reverse-splicing fitness
1,C82U A111G A145U C150U C169U U176C,0.0118
2,C82U A111G A145U C150U C169U U176G,0.0051
3,C82U A111G A145U C150U U176A,0.123
4,C82U A111G A145U C150U U176C,0.172
5,C82U A111G A145U C150U U176G,0.0347
6,C82U A111G A145U C169A,0.00645
7,C82U A111G A145U C169A U176A,0.00885
8,C82U A111G A145U C169A U176C,0.00683
9,C82U A111G A145U C169A U176G,0.00528
10,C82U A111G A145U C169G,0.00731
11,C82U A111G A145U C169G U176A,0.00999
12,C82U A111G A145U C169G U176C,0.00876
13,C82U A111G A145U C169G U176G,0.00474
14,C82U A111G A145U C169U,0.0102
15,C82U A111G A145U C169U U176A,0.012
16,C82U A111G A145U C169U U176C,0.00988
17,C82U A111G A145U C169U U176G,0.00468
18,C82U A111G A145U U176A,0.204
19,C82U A111G A145U U176C,0.258
20,C82U A111G A145U U176G,0.0781
21,C82U A111G C150A,0.0385
